Source: patent publication US20250277199, “NOVEL CRISPR-CAS NUCLEASES FROM METAGENOMES” (Brain Biotech AG, published 2025)

Target: T1, BMC05 (uncultured bacterium (metagenome))
T1 chain: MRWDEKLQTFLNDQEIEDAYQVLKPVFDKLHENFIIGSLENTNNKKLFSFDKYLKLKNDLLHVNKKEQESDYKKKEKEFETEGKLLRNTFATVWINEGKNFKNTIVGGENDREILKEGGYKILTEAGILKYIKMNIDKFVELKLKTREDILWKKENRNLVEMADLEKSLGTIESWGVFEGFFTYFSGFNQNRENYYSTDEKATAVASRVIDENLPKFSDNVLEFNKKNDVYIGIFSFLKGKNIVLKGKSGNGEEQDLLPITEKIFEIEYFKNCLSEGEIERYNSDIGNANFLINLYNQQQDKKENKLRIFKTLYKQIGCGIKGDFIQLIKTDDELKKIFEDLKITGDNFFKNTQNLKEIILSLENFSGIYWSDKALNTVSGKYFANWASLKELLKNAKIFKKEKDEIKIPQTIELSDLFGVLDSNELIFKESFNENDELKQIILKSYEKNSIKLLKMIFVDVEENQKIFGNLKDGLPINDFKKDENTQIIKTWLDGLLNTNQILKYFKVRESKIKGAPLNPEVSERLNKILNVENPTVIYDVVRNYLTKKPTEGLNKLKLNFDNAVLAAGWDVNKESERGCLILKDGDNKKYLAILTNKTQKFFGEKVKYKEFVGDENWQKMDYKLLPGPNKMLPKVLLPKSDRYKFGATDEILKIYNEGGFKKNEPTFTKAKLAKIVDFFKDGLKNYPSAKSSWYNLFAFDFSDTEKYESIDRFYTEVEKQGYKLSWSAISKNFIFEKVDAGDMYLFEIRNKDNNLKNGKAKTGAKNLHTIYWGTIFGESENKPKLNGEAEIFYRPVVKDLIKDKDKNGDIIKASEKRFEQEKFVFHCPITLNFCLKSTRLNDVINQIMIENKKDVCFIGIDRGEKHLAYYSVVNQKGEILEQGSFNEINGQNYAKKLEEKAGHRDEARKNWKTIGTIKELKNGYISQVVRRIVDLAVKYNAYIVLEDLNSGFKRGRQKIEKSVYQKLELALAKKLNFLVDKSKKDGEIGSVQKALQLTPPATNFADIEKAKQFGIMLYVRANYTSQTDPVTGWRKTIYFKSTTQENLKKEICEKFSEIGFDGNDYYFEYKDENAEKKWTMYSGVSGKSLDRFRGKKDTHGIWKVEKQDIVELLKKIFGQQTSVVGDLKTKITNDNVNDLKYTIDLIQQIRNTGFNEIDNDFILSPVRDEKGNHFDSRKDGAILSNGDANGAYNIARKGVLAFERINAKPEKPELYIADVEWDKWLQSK
Assay: cell_activity; PAM not stated; E. coli depletion, 30 C
Experimental: Overnight grown pre-cultures were diluted into fresh 60 ml LB-Kanamycin (25 μg/ml) (Example 4) or LB-Kanamycin (25μg/ml)/Nourseothricin (50 μg/ml) medium (Example 5) to obtain an optical density at 600 nm (OD600) of 0.06. The inoculated medium was incubated at 30° C. on a horizontal shaker at 250 rpm until the culture reached an optical density at OD600 of 0.2. For induced BMC (NN) nuclease expression, 600 μl 20% L-(+)-arabinose (w/v) was added to the culture at a final concentration of 0.2% (v/v). The cultivation was continued until the culture reached an optical density at OD600 of 0.5. Subsequently 50 ml culture was transferred into one 50 ml conical tube and harvested by centrifugation at 4° C. for 5 min and 4000×g. Pelleted cells were resuspended in 50 ml ultrapure water (ice-cold) and centrifuged at 4° C. for 5 min and 4000×g.
This washing procedure was repeated twice. Washed cells were resuspended in 25 ml 10% (w/w) glycerin and re-centrifuged at 4° C. for 5 min and 4000×g. The pelleted cells were resuspended in 5 ml 10% (w/w) glycerin. After the final centrifugation step at 4° C. for 5 min and 4000×g, the cells were resuspended in 125 μl 10% (w/w) glycerin. Aliquots of 25 μl competent cells were stored at −80° C. until use. For the transformation procedure, aliquots of competent cells were thawed on ice and 50-100 ng plasmid DNA (CRISPR/gRNA-Ec) was added. Prepared cells were electroporated at 1800 V, 25 μF and 200 Ω in 1 mm gap size electroporation cuvettes, using the Bio-Rad Gene Pulser Xcell Electroporation System. Subsequently, 975 μL of NEB® 10-beta/Stable Outgrowth Medium was added immediately after the pulse to the transformed cells. Regeneration was done at 30° C. on a horizontal shaker at 250 rpm. Finally, 25-100 μl of the cell suspension was plated onto selective M9-Glucose agar plates supplemented with Kanamycin (25 μg/ml)/Ampicillin (100 μg/ml) (Example 4) or Kanamycin (25 μg/ml)/Ampicillin (100 μg/ml)/Nourseothrin (50 μg/ml) (Example 5). Growth of transformed E. coli cells on selective agar plates was screened for 48 h at 30° C.
As described above, each of the BMC01, BMC02, BMC03, BMC04, BMC05, BMC07, BMC08, BMC09, BMC10, BMC11, BMC12, BMC13, BMC14, or BMC15 nucleases was co-transformed into E. coli with a gRNA targeting the E. coli malQ gene to visualize a) the activity and b) the DNA targeting efficiency of the BMC nucleases.

B1: malQ gRNA (BMC stem-loop + 24 nt spacer) ; malQ protospacer (ssRNA ; dsDNA)
RNA: GAUUUCUACUAUUGUAGAUGUGGCGGUACGUUGAUGCAUCGCG
DNA 1: GTGGCGGTACGTTGATGCATCGCG
DNA 2: CGCGATGCATCAACGTACCGCCAC
- activity: > 99.9 % colony reduction
